Assays:
[1] = Pharmacokinetics: serum kappamab by ELISA; type: in vivo, human
Description: The PK analysis was based on measurement of serum kappamab using an ELISA that was validated according to recommended guidelines. Briefly, immobilized human kappa Bence Jones protein (Bethyl, Sigma, USA) was used to capture kappamab. The captured kappamab was then detected using an AP-conjugated anti-human IgG (gamma chain specific; Sigma, Cat. No. H4522) followed by colour development with the AP substrate.

CCL27 = assay: Biomarker analysis: serum CCL27; type: in vivo, human; details: adjusted for cytokine baseline differences
Procedure: (§1) Patient serum samples for biomarker analysis were collected approximately 30 minutes before infusion of kappamab and then at 6, 48, 192, and 1,080 hours after infusion for all patients. Samples were analysed in triplicate and serum levels of 48 human cytokines, chemokines, and growth factors were measured using the Bio-Plex Pro™ Human Cytokine 27-plex and 21-plex assays according to the manufacturer's recommendations (Bio-Rad, Carlsbad, Calif., USA; Cat No M10-0KCAF0Y, mg0-005KMII). Results were verified by repeating the 21-plex assay in triplicate and the samples were randomized across the assay plate. Pre-infusion samples were used as the baseline (t=0) for the analysis.
(§2) Multivariate analysis of the biomarker data was performed using R version 3.1.0 (2014-04-10) software (http://www.R-project.org/). Linear mixed effects modelling was completed using 1me4 (Bates et al. 2015). […]
(§3) To find significance between kappamab dose, time, and cytokine expression levels, we fitted a linear mixed-effects model that modelled cytokine fluorescence expression levels with fixed-effects terms for baseline cytokine fluorescence expression, kappamab dose (with 4 levels: 0.3, 1.0, 3.0, and 10 mg/kg), time (treated as factor with 5 levels), and cytokine with 48 levels, plus their interactions, with a random effect associated with patient (12 levels) and plex (2 levels). […]

[2] = system: 48 human cytokines, chemokines, and growth factors; assay: Biomarker analysis, Bio-Plex 27-plex and 21-plex, mixed-effects model; type: in vivo; details: 48 cytokines
Procedure: as §1, §2, §3

[3] = system: human anti-chimeric antibody (HACA) against kappamab; assay: Human anti-chimeric antibody (HACA) sandwich ELISA; type: in vivo; details: Day 45 post infusion, any patient
Procedure: Blood samples were taken at pre-infusion and at completion of the treatment phase (Day 45 post infusion) for measurement of HACA responses. The presence of HACA was measured using a validated sandwich ELISA. Briefly, kappamab was immobilized on ELISA plates and the captured antibodies were detected using biotinylated kappamab and ExtrAvidie-alkaline phosphatase (Sigma, USA) followed by the alkaline phosphatase (AP) substrate. Goat anti-human IgG was used as the positive control for the assay.

CXCL9 = assay: Biomarker analysis: serum CXCL9; type: in vivo, human; details: adjusted for cytokine baseline differences
Procedure: as §1, §2, §3

serum κFLC = assay: Serum κFLC pharmacodynamics (FreeLite assay); type: in vivo, human
Description: (§4) Serum FLC levels were quantified using the FreeLite™ assay (The Binding Site Group Ltd, Birmingham, UK). […] Twenty-four-hour urine collection for urine protein electrophoresis immunofixation, urine FLC measurement (FreeLite™ assay), and creatinine clearance were collected on the day of infusion and on Day 45.

multiple myeloma = assay: Myeloma response, 18FDG-PET scan; type: in vivo, human
Procedure: FIG. 5. ^[…]-positron emission tomography (^18FDG-PET) scans for Patient 8 (who was receiving lenalidomide) prior to kappamab treatment (Panel A) and 30 days after intravenous infusion with 3.0 mg/kg kappamab (Panel B). ^18FDG-PET scanning was performed encompassing the skull vertex down to the knees on the combined PET/Computed Tomography (CT) scanner and a contemporaneous low-dose, non-contrast CT scan was performed for the purposes of attenuation correction and to provide anatomical correlation. […] In the spine, disease is most prominent within the sacrum. In the appendicular skeleton, disease is most pronounced within the proximal femur, where a prosthetic rod is in situ. No metabolically active disease is present outside the bones. In Panel B, ^18FDG-PET scanning was performed as before to assess the response 30 days after kappamab treatment. […] Low-grade uptake on the right lower lateral chest wall was […] and may reflect physiological muscular activity.
As patients only received a single infusion of kappamab it was not anticipated that any conventional responses would be observed.

serum λFLC = assay: Serum λFLC (FreeLite assay); type: in vivo, human; details: throughout the study
Description: as §4

G-CSF = assay: Biomarker analysis: serum G-CSF; type: in vivo, human; details: adjusted for cytokine baseline differences
Procedure: as §1, §2, §3

kappamab: humanized form of K121 anti-KMA antibody; VH SEQ ID NO: 1, VL SEQ ID NO: 2
Cmax ([1]; 1.0 mg/kg single IV dose, N = 3, geometric mean): 20600 ng/mL | Manner of decline of serum kappamab after Cmax ([1]; human, in vivo): biphasic manner | Serum concentration at Day 30 relative to Cmax ([1]; human, in vivo): 0.3-10 % of Cmax | Volume of distribution (Vz), description ([1]; human, in vivo): low and similar across ascending doses | AUC0-tz ([1]; human, in vivo, iv, 0.3 mg/kg): 803 µg·h/mL | AUC0-tz normalized for dose (mg/kg) ([1]; human, in vivo, iv, 0.3 mg/kg): 2678 µg·h/mL | AUC0-∞ ([1]; human, in vivo, iv, 0.3 mg/kg): 901 µg·h/mL | AUC0-∞ normalized for dose (mg/kg) ([1]; human, in vivo, iv, 0.3 mg/kg): 3003 µg·h/mL | CL (apparent total body clearance) ([1]; human, in vivo, iv, 0.3 mg/kg): 7.99 mL/day/kg | Cmax ([1]; human, in vivo, iv, 0.3 mg/kg): 5440 ng/mL | Vz (apparent volume of distribution during terminal phase) ([1]; human, in vivo, iv, 0.3 mg/kg): 0.114 L/kg | t1/2 (apparent elimination half-life) ([1]; human, in vivo, iv, 0.3 mg/kg): 237 h | tmax ([1]; human, in vivo, iv, 0.3 mg/kg): 3.00 h | AUC0-tz ([1]; human, in vivo, iv, 1 mg/kg): 3006 µg·h/mL | AUC0-tz normalized for dose (mg/kg) ([1]; human, in vivo, iv, 1 mg/kg): 3006 µg·h/mL | AUC0-∞ normalized for dose (mg/kg) ([1]; human, in vivo, iv, 1 mg/kg): 3079 µg·h/mL | CL (apparent total body clearance) ([1]; human, in vivo, iv, 1 mg/kg): 7.79 mL/day/kg | Vz (apparent volume of distribution during terminal phase) ([1]; human, in vivo, iv, 1 mg/kg): 0.0946 L/kg | t1/2 (apparent elimination half-life) ([1]; human, in vivo, iv, 1 mg/kg): 202 h | tmax ([1]; human, in vivo, iv, 1 mg/kg): 4.00 h | AUC0-tz ([1]; human, in vivo, iv, 3 mg/kg): 6864 µg·h/mL | AUC0-tz normalized for dose (mg/kg) ([1]; human, in vivo, iv, 3 mg/kg): 2288 µg·h/mL | AUC0-∞ ([1]; human, in vivo, iv, 3 mg/kg): 6927 µg·h/mL | AUC0-∞ normalized for dose (mg/kg) ([1]; human, in vivo, iv, 3 mg/kg): 2309 µg·h/mL | CL (apparent total body clearance) ([1]; human, in vivo, iv, 3 mg/kg): 10.4 mL/day/kg | Cmax ([1]; human, in vivo, iv, 3 mg/kg): 69900 ng/mL | Vz (apparent volume of distribution during terminal phase) ([1]; human, in vivo, iv, 3 mg/kg): 0.120 L/kg | t1/2 (apparent elimination half-life) ([1]; human, in vivo, iv, 3 mg/kg): 191 h | tmax ([1]; human, in vivo, iv, 3 mg/kg): 2.00 h | AUC0-tz ([1]; human, in vivo, iv, 10 mg/kg): 22994 µg·h/mL | AUC0-tz normalized for dose (mg/kg) ([1]; human, in vivo, iv, 10 mg/kg): 2299 µg·h/mL | AUC0-∞ ([1]; human, in vivo, iv, 10 mg/kg): 23227 µg·h/mL | AUC0-∞ normalized for dose (mg/kg) ([1]; human, in vivo, iv, 10 mg/kg): 2323 µg·h/mL | CL (apparent total body clearance) ([1]; human, in vivo, iv, 10 mg/kg): 10.3 mL/day/kg | Cmax ([1]; human, in vivo, iv, 10 mg/kg): 219000 ng/mL | Vz (apparent volume of distribution during terminal phase) ([1]; human, in vivo, iv, 10 mg/kg): 0.0770 L/kg | t1/2 (apparent elimination half-life) ([1]; human, in vivo, iv, 10 mg/kg): 124 h | tmax ([1]; human, in vivo, iv, 10 mg/kg): 4.00 h | Detectability of kappamab in serum ([1]; in vivo): could be detected at all dose levels (up to Day 30) | Start of the apparent terminal elimination phase ([1]; in vivo, iv): ~7 days | Time at which maximum serum concentrations were achieved ([1]; in vivo, iv): 2 to 4 h | Change in serum concentration (CCL27): dose-related decreases | Increases in serum cytokine concentrations in response to treatment [2]: No increases | HACA response to kappamab [3]: no antibody responses to kappamab were detected | Change in serum concentration (CXCL9): dose-related decreases | Serum κFLC higher than baseline (serum κFLC; Patient 2, during the study): up to 136% | Serum κFLC higher than baseline (serum κFLC; Patient 7, Day 1): 83% | Serum κFLC increase from baseline (serum κFLC; Patient 7, Day 30): 178% | Serum κFLC increase from baseline (serum κFLC; Patient 7, Day 45): 198% | Serum κFLC versus baseline (serum κFLC; Patient 7, by Day 105 post infusion): returned to below baseline | Serum κFLC increase from baseline (serum κFLC; Patient 13, 6 hours after IV infusion): 690% | Serum κFLC below baseline (serum κFLC; Patient 13, Day 45, remained for 3 months): 55% | Patients with decreases in serum κFLC below baseline (serum κFLC; after Day 15, 8/12 patients): 67% | Change in serum κFLC levels following IV infusion (serum κFLC; all patients): increase | Serum κFLC versus baseline (serum κFLC; by Day 45, majority of patients): generally similar to baseline values | Dose dependency between serum κFLC increase and kappamab concentration (serum κFLC; in vivo): no clear dose dependency | 18FDG-PET metabolic response (multiple myeloma; Patient 8 (receiving lenalidomide), 3 mg/kg, 30 days after infusion versus baseline scan, 3 mg/kg): favourable and almost complete metabolic response | Symptomatic improvement (multiple myeloma; Patient 8, 3 mg/kg): diminished bone pain and normalization of kidney function | Serum λFLC concentration (serum λFLC): no apparent change | Change in serum concentration (G-CSF): dose-related decreases

— US20220031840A1, “Method of Treatment” (HaemaLogix Pty Ltd, priority 2018, published 2022)
